Test results as given in publication PMC12415261 (Proceedings of the National Academy of Sciences of the …, 2025).

B1: ActRIIB2-Fc (trap with two ActRIIB extracellular domains) (Fc fusion, human, UniProt Q13705-1 19-133, looked up)
chain: SGRGEAETRECIYYNANWELERTNQSGLERCEGEQDKRLHCYASWRNSSGTIELVKKGCWLDDFNCYDRQECVATEENPQVYFCCCEGNFCNERFTHLPEAGGPEVTYEPPPTAP
notes: signal peptide in the construct; ActRIIB (activin receptor type IIB), human, extracellular domain, residues 1 to 133, fused to an IgG1 Fc domain; The limits 1 to 133 are told for the ActRIIB-Fc fusions of this study in general; not shown: Fc (IgG1), C-terminal, kept
B2: ActRIIB2-Fc (Fc fusion, human, UniProt Q13705-1 19-133, looked up)
chain: B1 chain
notes: signal peptide in the construct; extracellular domain of human ActRIIB, residues 1 to 133; also called trap containing two ActRIIB ECDs; source: CHO cells, purified, as previously described (17, 19); not shown: Fc (IgG1), C-terminal, kept
B3: ActRIIB1-Fc (trap with a single ActRIIB extracellular domain) (Fc fusion)
chain: B1 chain
modifications: Printed range is 1-133; signal peptide 1-18 is removed. The deposited 9N4K/9MIR chains run to T134 before the linker. Human IgG1 Fc carrier is left out; the second Fc arm carries no receptor. …
B4: Recombinant human BMP6 (mammalian expressed, glycosylated), P22004 375-513 (ligand)
chain: SASSRRRQQSRNRSTQSQDVARVSSASDYNSSELKTACRKHELYVSFQDLGWQDWIIAPKGYAANYCDGECSFPLNAHMNATNHAIVQTLVHLMNPEYVPKPCCAPTKLNAISVLYFDDNSNVILKKYRNMVVRACGCH
modifications: here or on the partner: N-linked glycosylation at Asn454 (prehelix loop)
B5: Deglycosylated BMP6 (BMP6 treated with PNGaseF) (ligand, human, UniProt P22004 375-513, looked up)
chain: B4 chain
notes: BMP6, human, mature domain of the precursor, N-linked glycosylation completely removed with PNGaseF; disulfide-linked dimer; Same protein as Dm1 after PNGaseF treatment; also called dgBMP6; PNGaseF treated BMP6; source: bought: RnD (Cat. No. 507-BP), produced from CHO cells; deglycosylated with rapid PNGase F (New England Biolabs), 15 min at 50 C
B6: Deglycosylated BMP6 (BMP6 treated with PNGaseF) (ligand, human, UniProt P22004 375-513, looked up)
chain: B4 chain
modifications: glycosylation completely removed with PNGaseF
notes: mature domain of human BMP6; also called dgBMP6; source: bought: RnD (Cat. No. 507-BP), CHO; deglycosylated with rapid PNGase F (15 min at 50 °C)
B7: Recombinant human BMP6, mammalian expressed (glycosylated) (ligand, UniProt P22004 375-513, looked up)
chain: B4 chain
modifications: N-linked glycosylation at Asn454 (prehelical loop)
notes: mature domain of human BMP6; residues 410 to 513 resolved in the maps (82.3% of mature domain); Dimer held together by a cystine knot; also called glycosylated BMP6; source: bought: RnD (Cat. No. 507-BP), produced from CHO cells
B8: Recombinant human BMP6, mammalian expressed (glycosylated), P22004 375-513 (ligand)
chain: B4 chain
modifications: here or on the partner: N-linked glycosylation at Asn454 (prehelical loop)
B9: Recombinant human BMP6 (mammalian expressed, glycosylated) (ligand, UniProt P22004 375-513, looked up)
chain: B4 chain
modifications: N-linked glycosylation at Asn454 (prehelix loop)
notes: BMP6, human, mature domain of the precursor (residues 410 to 513 resolved in the cryoEM maps, 82.3% of the mature domain); disulfide-linked dimer; also called Bone Morphogenetic Protein 6; source: bought: RnD (Cat. No. 507-BP), produced from CHO cells

What was measured:
[1] = target: B9; assay: SPR; Cytiva T-200; trap captured through its Fc on a CM4 chip with immobilised goat antihuman Fc-specific IgG (about 3,000 RU); ligand flowed, five-step twofold dilution from 5 nM; 10 mM HEPES pH 7.4, 350 mM NaCl, 3.4 mM EDTA, 0.005% P-20; 25 C; 300 s association and dissociation, 30 uL/min; 1:1 fit with mass transport limitation; triplicate; details: both partners purified
[2] = target: B5; assay: as above; details: both partners purified
[3] = target: B7; assay: SPR; traps captured by goat antihuman Fc IgG on a CM4 chip; ligand flowed, five-step twofold dilution from 5 nM; HBS-EP+ (10 mM HEPES pH 7.4, 350 mM NaCl, 3.4 mM EDTA, 0.005% P-20), 25 °C; 1:1 fit with mass transport limitation; details: both partners purified
[4] = target: ActRIIB1-Fc (trap with a single ActRIIB extracellular domain) (human); assay: SPR; Cytiva T-200; trap captured through its Fc on a CM4 chip with immobilised goat antihuman Fc-specific IgG (about 3,000 RU); ligand flowed, five-step twofold dilution from 5 nM; 10 mM HEPES pH 7.4, 350 mM NaCl, 3.4 mM EDTA, 0.005% P-20; 25 C; 300 s association and dissociation, 30 uL/min; 1:1 fit with mass transport limitation; triplicate
[5] = target: T1, ALK2-ActRIIB-Fc (heterodimeric trap) (human, UniProt Q04771 21-123; Q13705 19-133); assay: as above; details: both partners purified
T1 construct: signal peptide in the construct; ActRIIB, human, extracellular domain, residues 1 to 133, fused to an IgG1 Fc domain; also called ALK2-IIB-Fc; ActRIIB-ALK2; source: SEC Superdex 200 increase; not shown: Fc (IgG1), C-terminal, kept; copies: 1 + 1

[6] = target: T2, ALK3-ActRIIB-Fc (heterodimeric trap) (human, UniProt P36894 24-152; Q13705 19-133); assay: as above; details: both partners purified
T2 construct: signal peptide in the construct; ActRIIB, human, extracellular domain, residues 1 to 133, fused to an IgG1 Fc domain; also called ALK3-IIB-Fc; ActRIIB-ALK3; source: SEC Superdex 200 increase; not shown: Fc (IgG1), C-terminal, kept; copies: 1 + 1

ALK3-ActRIIB-Fc = target: T3, ALK3-ActRIIB-Fc (human, UniProt P36894 24-152; Q13705 19-133); assay: SPR; traps captured by goat antihuman Fc IgG on a CM4 chip; ligand flowed, five-step twofold dilution from 5 nM; HBS-EP+ (10 mM HEPES pH 7.4, 350 mM NaCl, 3.4 mM EDTA, 0.005% P-20), 25 °C; 1:1 fit with mass transport limitation; details: both partners purified
T3 construct: signal peptide in the construct; extracellular domain of human ActRIIB, residues 1 to 133; also called heterodimeric trap; ActRIIB-ALK3; source: CHO cells, cotransfected, purified (MabSelect SuRe protein A, SEC); not shown: Fc (IgG1), C-terminal, kept; copies: 1 + 1

ALK2-ActRIIB-Fc = target: T4, ALK2-ActRIIB-Fc (human, UniProt Q04771 21-123; Q13705 19-133); assay: as above; details: both partners purified
T4 construct: signal peptide in the construct; extracellular domain of human ActRIIB, residues 1 to 133; also called heterodimeric trap; ActRIIB-ALK2; source: CHO cells, cotransfected, purified (MabSelect SuRe protein A with pH gradient, SEC); not shown: Fc (IgG1), C-terminal, kept; copies: 1 + 1

ActRIIB1-Fc (human) = assay: as above

T1 sequence (Q04771 21-123, one chain of several): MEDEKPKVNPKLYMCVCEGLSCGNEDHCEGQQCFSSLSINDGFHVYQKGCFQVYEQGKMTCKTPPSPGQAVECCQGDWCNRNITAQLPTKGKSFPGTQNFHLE
T2 sequence (P36894 24-152, one chain of several): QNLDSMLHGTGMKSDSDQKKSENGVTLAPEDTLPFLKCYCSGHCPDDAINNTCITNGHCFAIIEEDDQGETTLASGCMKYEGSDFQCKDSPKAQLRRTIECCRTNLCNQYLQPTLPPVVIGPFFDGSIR
T4 sequence (Q04771 21-123, one chain of several): as the sequence (Q04771 21-123, one chain of several) above
T3 sequence (P36894 24-152, one chain of several): as the sequence (P36894 24-152, one chain of several) above

Binder: B1
- koff [1]: 0.00119 s⁻¹
- kon [1]: 3.17e+07 M⁻¹ s⁻¹
- Kd [2]: 48.9 ± 6 pM
- koff [2]: 0.00152 s⁻¹
- kon [2]: 3.12e+07 M⁻¹ s⁻¹

Binder: B2
- Kd [3]: 42.1 pM

Binder: B3
- Kd [2]: 110 ± 14.8 pM
- koff [2]: 0.00186 s⁻¹
- kon [2]: 1.7e+07 M⁻¹ s⁻¹

Binder: B4
- koff [4]: 0.00234 s⁻¹
- kon [4]: 2.16e+07 M⁻¹ s⁻¹

Binder: B5
- koff [5]: 0.00147 s⁻¹
- kon [5]: 1.16e+07 M⁻¹ s⁻¹
- koff [6]: 0.000432 s⁻¹
- kon [6]: 1.23e+07 M⁻¹ s⁻¹

Binder: B6
- Kd (ALK3-ActRIIB-Fc): 35.1 pM
- Kd (ALK2-ActRIIB-Fc): 127 pM

Binder: B7
- Kd (ALK3-ActRIIB-Fc): 30 pM
- Kd (ALK2-ActRIIB-Fc): 36.6 pM

Binder: B8
- Kd (ActRIIB1-Fc (human)): 108 pM

Binder: B9
- koff [5]: 0.000528 s⁻¹
- kon [5]: 1.43e+07 M⁻¹ s⁻¹
- koff [6]: 0.000423 s⁻¹
- kon [6]: 1.39e+07 M⁻¹ s⁻¹
